This is an account of results in patent publication US20250188133A1, “CHIMERIC BACTERIOCINS AND METHOD FOR THE CONTROL OF PSEUDOMONAS” (priority 2022, published 2025).

The test system of test [1] is P. aeruginosa BR79. Kind of test: agar disc-diffusion assay. To be noted: strain BR79; 0.3, 3 and 30 μg of protein spotted on discs on CAA agar lawn, overnight. Format: cell-based. An outline of the steps: (§1)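 Overnight cultures in CAA medium were adjusted to OD595=1.0, diluted 100× and swabbed onto CAA agar (1.5%). Chimeric pyocins (0.3-30 μg) were spotted on 6 mm paper discs; plates were incubated overnight at 37° C and inhibition zones observed.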

In test [2] the test system is P. aeruginosa Boston 41501 (ATCC 27853). Kind of test: agar disc-diffusion assay. Format: cell-based. The conditions noted are these: strain Boston; 0.3, 3 and 30 μg of protein spotted on discs on CAA agar lawn, overnight. An outline of the steps:
as §1

The subject of test [3] is P. aeruginosa UR78. The test is described as follows: agar disc-diffusion assay. Format: cell-based. The conditions noted are these: strain UR78; 0.3, 3 and 30 μg of protein spotted on discs on CAA agar lawn, overnight. The essentials:
as §1
(In agar diffusion tests the substance spreads into inoculated agar from a disc or well.)

For test [4], the system named is P. aeruginosa ATCC 19660. The test is described as follows: ex vivo porcine corneas as model for bacterial keratitis. Format: cell-based. The conditions noted are these: 5 μg applied 16-20 h after colonization, further 16-20 h incubation. As for the experimental part: (§2) Preparation of porcine corneas. Porcine eyes were acquired from the nearest slaughterhouse. Enucleated eyes were stored at −70° C. Before the start of experiment, eyes were transferred to 4° C. for 1 hour, then to room temperature for 1-2 hours until the eyeballs were completely defrosted. Then eyeballs were individually placed in sterile plastic containers and submerged for 5 min in 2.5% Povidone-iodine (Betadine 100 mg/ml; EGIS Pharmaceuticals PLC), then twice washed with sterile PBS. The corneas were excised with sterile surgical blade No. #12. The excised corneas were stored in Minimum Essential Medium (MEM) supplemented with Non-Essential Amino Acids, L-Glutamine (2 mM), penicillin (200 U/ml)+spectinomycin (25 μg/ml) until further use at 4° C. up to two weeks.
(§3) Cornea infection and pyocin treatment. P. aeruginosa was grown overnight from frozen stock. Next morning, the culture was diluted 100 fold by fresh LB medium, and grown until OD595=˜0.6 (˜6 hours). Bacteria were collected by centrifugation and re-suspended in PBS. The dissected corneas were placed on agarose-gelatin (0.5% each) solid support in a 6-well culture plate containing 800 μL MEM with antibiotics (100 U/ml penicillin, 25 μg/ml spectinomycin), then three horizontal and 3 vertical scratches were made using a sterile 25 gauge needle. 3×10^4 CFU of P. aeruginosa ATCC 19660 strain or 0.4×10^4 CFU of PAO1 strain were applied to cornea and incubated for 16-20 hours in 37° C. CO2 incubator ([…]). 5 corneas were used for each experimental point. After incubation with P. aeruginosa, the corneas were visually inspected for opacity. The corneas which were clear and without signs of infection were considered as non-infected and discarded from further study. 5 μg of S5-PmnH (in 5 μl of PBS) or 5 μl of PBS were applied to infected corneas and incubated for additional 16-20 hours in 37° C. CO2 incubator.
(§4) Homogenization and CFU counting. Prior the homogenization the corneas were washed 3 times for 10 min in 50 ml sterile PBS with occasional agitation. Each cornea was chopped in 4 equal parts, trying to get rid of sclera. […]

Test [5] deals with P. aeruginosa PAO1. Described as above. The format is cell-based. The conditions noted are these: 5 μg applied 16-20 h after colonization, further 16-20 h incubation. On the procedure: as §2, §3, §4
Test [6] deals with P. aeruginosa ATCC 27853. The test is described as follows: murine lung colonization and treatment (CD1 mice). The format is in vivo. The conditions noted are these: 5 h post infection. As for the experimental part:
CD1 male mice were supplied by Charles River (Margate, UK) and were specific pathogen free. Mice were 11 to 15 g on receipt at the facility and were allowed to acclimatize for at least 7 days.
P. aeruginosa ATCC 27853 was recovered from long-term storage (−80° C.) and cultured on cystine-lactose-electrolyte-deficient (CLED) agar at 37° C. under aerobic conditions for approximately 16-24 h. 20 ml of Mueller Hinton broth was inoculated with a single well isolated colony and cultured overnight at 37° C. with shaking at 300 rpm65. The overnight broth was diluted 1:100 in Mueller Hinton broth and 100 ml was cultured in a baffle flask for ˜6 h at 37° C. with shaking at 300 rpm until the broth OD was ˜0.6 (˜mid-exponential phase). 20 ml of culture was centrifuged at 2465 g for 10 minutes and washed in PBS. The pellet was suspended in PBS and the OD600 adjusted to 0.67 (˜2.6×10^8 CFU/ml). The study inoculum was prepared from this by appropriate dilution with PBS. The inoculum concentration was confirmed by quantitative culture on Pseudomonas Selective Agar (PSA). The inoculum concentration for the study was 1.47×10^7 CFU/ml (5.87×10^5 CFU/mouse).
Mice were infected under temporary inhaled 3% isoflurane anesthesia by intranasal (IN) instillation with 40 μl of the inoculum suspension split as 20 μl/nostril.
1 hour post infection 6 mice were sacrificed in order to evaluate the pre-treatment burden in lungs. Treatments were administered IN once at 1 h post infection (50 μl split to 25 μl/nares). Three treatment groups consisting of six mice each were administered S5-PmnH (2.5, 25 and 250 μg). The fourth group of mice (n=6) was administered 200 μg Tobramycin (40 mg/ml injection solution, Hospira UK Ltd, diluted 10 times). The study was terminated at 5 hours post infection for all animals. The clinical conditions and weights were assessed and animals were immediately euthanized using an overdose of pentobarbitone. Following confirmation of death, the lungs were excised and homogenized in ice cold sterile phosphate buffered saline using a Precellys bead beater. The homogenates were quantitatively cultured onto PSA agar and incubated at 37° C. for 24 hours before colonies were counted.

B1: S5-PmnH (protein)
chain: MSNDNEVPGSMVIVAQGPDDQYAYEVPPIDSAAVAGNMFGDLIQREIYLQKNIYYPVRSIFEQGTKEKKEINKKVSDQVDGLLKQITQGKREATRQERVDVMSAVLHKMESDLEGYKKTFTKGPFIDYEKQSSLSIYEAWVKIWEKNSWEERKKYPFQQLVRDELERAVAYYKQDSLSEAVKVLRQELNKQKALKEKEDLSQLERDYRTRKANLEMKVQSELDQAGSALPPLVSPTPEQWLERATRLVTQAIADKKQLQTTNNTLIKNSPTPLEKQKAIYNGELLVDEIASLQARLVKLNAETTRRRTEKELTPDEKAAYTDAVSFVSTANEQMLQKYGANLSKVAQDMQAEIAGKKVRSYAEAMATFEKISANPAMKLNALDTQAVVDALNALDKASFADNITRLGKAFGVVGKVVQAEAIREKTVSGFQTGDWKPLMLELEAMAVGTGAGILLATSMAFFFPVFASAAAGVVVVALMMAATAAYFDAAKVDEINNLILN
modifications: Chimeric S5-PmnH
Turning to B1, the “Activity in agar disc-diffusion assay” value was “** (activity detected with 3 μg of protein)” in test [1], “*** (activity detected with 0.3 μg of protein)” in test [2] and “*** (activity detected with 0.3 μg of protein)” in test [3]. For the same molecule, in test [4], the “reduction of CFU number” value is 5.3 log10. Besides, the “burden in treated corneas (average)” value in test [5] was determined as 10 CFU per cornea. Also, the “reduction of burden vs untreated corneas” value in test [5] is 6.6 log10. The “reduction of lung burden vs vehicle” value in test [6] (2.5 μg/mouse IN once 1 h post infection) was 2.1 log10 CFU/g; in test [6] (25 μg/mouse IN once 1 h post infection), 2.31 log10 CFU/g; in test [6] (250 μg/mouse IN once 1 h post infection), 2.66 log10 CFU/g. Also, the “reduction of burden below the level of stasis (pre-treatment)” value in test [6] (2.5 μg/mouse IN once) is recorded as 0.58 log10 CFU/g; in test [6] (25 μg/mouse IN once), 0.78 log10 CFU/g; in test [6] (250 μg/mouse IN once), 1.13 log10 CFU/g.
